The text below walks through data of the supplement of paper PMC12764529.

± gives the half width of the 95% confidence interval.

Series [1] in a line: folding stability dG unfold (combined trypsin and chymotrypsin); higher = more stable. The method, boiled down: (§1)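 Designed mini-proteins (under 80 residues, no cysteine) in a PA-tagged cDNA display construct were digested with trypsin and chymotrypsin. Each protease was used at 11 concentrations (threefold dilutions) plus a no-protease condition, followed by sequencing. K50 was inferred by Bayesian fitting of sequencing counts, and unfolding free energy was derived against a sequence-predicted unfolded-state K50 and a shared folded-state K50, per protease or combined. Only designs with AlphaFold2 dimer inter-PAE above 15 were kept.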

Series [2] is described as follows: folding stability dG unfold from trypsin proteolysis; higher = more stable. The method, boiled down:
as §1

A short description of series [3]: folding stability dG unfold from chymotrypsin proteolysis; higher = more stable. The method, boiled down:
as §1

For “SAKKTVKLKIEIYKVKVEKLKDGKEKITEVEKIAELEIEAEVDEDGKVTIRIDGKEIEVPAGTSLEELLSAG [r14_909_TrROS_Hall]”, the “folding stability dG unfold” value in series [1] is 11.5 ± 0.753 kJ/mol; in series [2], 9.3 ± 0.711 kJ/mol; in series [3] it was 12.8 ± 0.502 kJ/mol.
The like results for “SAKKVKIEIKNKETNKIYTIEIKEDGKVTIKNKETGEEIEVEINGKKITFPPGASIDEIIKKLEEALKKSAG [r14_561_TrROS_Hall]” were, in that order, 10.7 ± 1.3 kJ/mol, 7.2 ± 0.669 kJ/mol and 11.6 ± 0.502 kJ/mol.
Regarding “SAKKYIIRVKVKINGKEYEIEIEADSLEEALAKLKEELKKLFPGEKIEEVKIEVYDAKTGEKKEITLKLSAG [r14_54_TrROS_Hall]”, the “folding stability dG unfold” value stood at 16.7 ± 1.46 kJ/mol in series [1], 11.5 ± 0.502 kJ/mol in series [2] and 17.6 ± 0.669 kJ/mol in series [3].
Taken in the same sequence, the figures for “SAKPVAEGPIRIPNGFEIEITQIKPDKENGEIVIPIEIEMWRPERDPEDPNQPKWEPQEMNIAFTIPLDSAG [r14_888_TrROS]” were 3.58 ± 0.92 kJ/mol, 5.43 ± 0.586 kJ/mol and 0.5 ± 3.39 kJ/mol.
In the case of “SAKRVNVEIWIPGDWDEIQEIAEDINFPVEIERNPDKPDMYRITFTFPTPEKAPKILDALNKHGMQIEISAG [r14_745_TrROS]”, the “folding stability dG unfold” value was determined as 6.86 ± 0.711 kJ/mol in series [1], 5.58 ± 0.264 kJ/mol in series [2] and 7.89 ± 0.339 kJ/mol in series [3].
Turning to “SAKTKTIEIEVKIKLIEIDPKTGKKTEKEFTAKATITYDEENNVVTIKIEFKDNGKTITITLPPGAKIKSAG [r14_587_TrROS_Hall]”, the “folding stability dG unfold” value in series [1] is 9.46 ± 1.13 kJ/mol; in series [2], 8.79 ± 0.41 kJ/mol; in series [3], 9.4 ± 0.586 kJ/mol.
As to “SAKVVIIKVKSPEELKAAIEELKKKLPEGAVIYIVNEDGSVYKITFDKKTGKVKIEKVKSLEELKKLLKSAG [r14_913_TrROS_Hall]”, the “folding stability dG unfold” value in series [1] worked out at 14.5 ± 0.586 kJ/mol; in series [2] it was 9.67 ± 0.226 kJ/mol; in series [3] it was 16.6 ± 0.36 kJ/mol.
Turning to “SALLEPLLLEVYIPATGEVITVPAKSLEEAEAIIAEVRADPTVASVRITLPDGTVVEVSFNVSPAAYLKSAG [r14_747_JUSTAS]”, the “folding stability dG unfold” value in series [1] was found to be 1.27 ± 0.837 kJ/mol; in series [2], 1.76 ± 0.502 kJ/mol; in series [3], 0.544 ± 0.669 kJ/mol.
The like results for “SALSASELAKRVRDRIKELSNEEGYNVDIKVDVQPNEDGSVTVHIQFDSPWMIKRIKEKLPPGVNVEIMSAG [r14_491_TrROS]” were, in that order, 11.5 ± 0.209 kJ/mol, 13.2 ± 0.305 kJ/mol and 10.13 ± 0.0879 kJ/mol.
As for “SAMDIGPEERAELLLRTLANIAKEEIEKGDLEKAKIFVINGIAEENPPLAERILKEAKELGLPVIILPESAG [r14_908_TrMRF]”, the “folding stability dG unfold” value in series [1] came to 4.1 ± 0.247 kJ/mol; in series [2], 2.76 ± 0.418 kJ/mol; in series [3], 4.74 ± 0.318 kJ/mol.
On to “SAMEKGKALKYREVIPLPDGPVELEIIYFPETGEYVAIIRNPSTGEKVEIPFKFDSLEDAVKAAKDFVASAG [r14_65_TrMRF]”, for which the entries for the “folding stability dG unfold” value in series [1], in series [2] and in series [3] were 13.8 ± 0.318 kJ/mol, 8.61 ± 0.46 kJ/mol and 15.5 ± 0.121 kJ/mol, respectively.
For “SAMEKPLETLEIPIPGLPVTVKITIYPSHIEKAKESGIPEITVEALLTIELPDGSKVEKKIPLTVKIPGSAG [r14_100_JUSTAS]”, the “folding stability dG unfold” value in series [1] turned out to be 6.74 ± 0.46 kJ/mol; in series [2], 6.62 ± 0.18 kJ/mol; in series [3], 6.99 ± 0.176 kJ/mol.
Taken in the same sequence, the figures for “SAMIEVINATDPVTGKPYTITREGEGITVTDPETGKTYAATKDGDTITLDAGDTPLTLTPVSTVPESLLSAG [r14_208_JUSTAS]” were 4.21 ± 0.418 kJ/mol, 3.51 ± 0.172 kJ/mol and 4.14 ± 0.669 kJ/mol.
As to “SAMIIVAMAPDRMLIIGPDGRVLVVDDPEKAIELIKELFPVPIIVIPVPEDSPVFRELLERLERERTGESAG [r14_235_TrMRF]”, the “folding stability dG unfold” value is 12.2 ± 0.586 kJ/mol in series [1], 11.3 ± 0.335 kJ/mol in series [2] and 13.3 ± 0.46 kJ/mol in series [3].
On to “SAMITVEIVDPLPDIANLSEEEAKALAEELAEEYAKKKFPNENVKITKVEVELEPETPEIRVTVTLELKSAG [r14_310_JUSTAS]”, for which the “folding stability dG unfold” value in series [1] came to 9.91 ± 0.628 kJ/mol; in series [2] it was 8.75 ± 0.669 kJ/mol; in series [3] it was 10.7 ± 0.347 kJ/mol.
Turning to “SAMIVKDLKTKEEIKKVLEEIAKKLGYPNVTPEEAEEILKKIGVKILSIEKNPKNPEKYIIKIKIEKPKSAG [r14_678_JUSTAS]”, the “folding stability dG unfold” value turned out to be 9.57 ± 0.586 kJ/mol in series [1], 9.34 ± 0.418 kJ/mol in series [2] and 9.8 ± 0.138 kJ/mol in series [3].
Taken in the same sequence, the figures for “SAMIVVTLTINPITGKPILIFDPGVGVYAIDPETGEPHEATVDGDTLTLNFGNRPILLTPEAVIPPEELSAG [r14_208_TrMRF]” were 5.05 ± 0.28 kJ/mol, 3.93 ± 0.0711 kJ/mol and 5.91 ± 0.331 kJ/mol.
In the case of “SAMKFKKGAKIEIEVEKVEEKEIDGKTVAVYRMKIKIEVDGKKYEIEVEIYYDKETKEWKIVKVEIKEVSAG [r14_293_TrROS_Hall]”, the results for the “folding stability dG unfold” value in series [1], in series [2] and in series [3] were 13.9 ± 0.795 kJ/mol, 14.9 ± 1.38 kJ/mol and 13.1 ± 0.192 kJ/mol, respectively.
Consider “SAMKIAKVTYEPVKVDGKELLLFKVEIVHSETGEKEEKTFLTEDPEDFIENLLKHPDIDIVEILEFKEGSAG [r14_464_TrMRF]”, for which the “folding stability dG unfold” value in series [1] was 13.4 ± 0.347 kJ/mol; in series [2], 9.69 ± 0.544 kJ/mol; in series [3] it was 14.4 ± 0.276 kJ/mol.
As for “SAMKIIIKLPKNVKPIKAEELEKIPGIKVVKIEIYKGEDGVYYLLIEIEESIPPEKLKELEEKIREIAGSAG [r14_421_TrMRF]”, the “folding stability dG unfold” value came out at 24.3 ± 1.72 kJ/mol in series [1], 18.6 ± 1.17 kJ/mol in series [2] and 22.7 ± 0.628 kJ/mol in series [3].
The like results for “SAMKIKPGEKVKIKIEVKNKKTKKKKTIEIEVPVDEETGEVFTEDELKKLLEKLGIEVEEVKIVEIEKESAG [r14_93_TrROS_Hall]” were, in that order, 3.18 ± 0.879 kJ/mol, 3.71 ± 0.197 kJ/mol and 2.51 ± 0.628 kJ/mol.
Taken in the same sequence, the figures for “SAMKKGEKVKVTLEIEVNGKKYKIELVYDKENNTYTIKIKNEKTGETKTIEVKAKTKEEALEAAKKLLESAG [r14_65_TrROS_Hall]” were 10.1 ± 0.669 kJ/mol, 8.19 ± 0.318 kJ/mol and 10.7 ± 0.146 kJ/mol.
In the case of “SAMKLPKDVEIKEIKFDPEKTVTIKIKVKKYDFFIYDPETGKVIVIKPGEEKEITLPANIPLLIFAIKPSAG [r14_385_TrMRF]”, the results for the “folding stability dG unfold” value in series [1], in series [2] and in series [3] were 9.05 ± 0.962 kJ/mol, 9.06 ± 0.385 kJ/mol and 7.97 ± 0.41 kJ/mol, respectively.
Turning to “SAMKLSPELLKKLGLSKEDIKEIEIEVEPVPELSEEDLKKKNVTVYKVKIKIKVNGKEYEVELLFVEPKSAG [r14_483_TrROS_Hall]”, the “folding stability dG unfold” value is 9.13 ± 0.628 kJ/mol in series [1], 7.68 ± 0.293 kJ/mol in series [2] and 10.4 ± 0.753 kJ/mol in series [3].
“SAMKPKEVVIEISVEELRKLAKELFPEKELTLEELKNLVKELLEKLGIKVKKVEIVKVDPEKKRIVIKVSAG [r14_303_TrROS_Hall]”: the “folding stability dG unfold” value in series [1] was 8.46 ± 0.879 kJ/mol; in series [2], 11.6 ± 0.628 kJ/mol; in series [3], 7.21 ± 0.347 kJ/mol.
As for “SAMKTIEIEIELDELKNLTPEELEEKAKELAEELAKKLAEEKGLEVVSVKVEVVEKDGKLVVKVTVEVKSAG [r14_310_TrROS_Hall]”, the figures for the “folding stability dG unfold” value in series [1], in series [2] and in series [3] were 15.3 ± 2.97 kJ/mol, 15 ± 1 kJ/mol and 11.8 ± 1.09 kJ/mol, respectively.
In the case of “SAMKVEKLEELPDKEILKVEATPEELRKIVEELAKANPGYEVSYKILEEEPIALITLTPIPKGPKENLVSAG [r14_600_JUSTAS]”, the “folding stability dG unfold” value is 3.33 ± 0.544 kJ/mol in series [1], 4.51 ± 0.251 kJ/mol in series [2] and 0.0729 ± 0.837 kJ/mol in series [3].
Consider “SAMKVKVIVINPDGKPQEFEFEAEEGDPEKLVEEVEAEIKKLHPNSDIKFKAEVLEVKPDGEITILVSDSAG [r14_622_TrMRF]”, for which the results for the “folding stability dG unfold” value in series [1], in series [2] and in series [3] were 10.5 ± 0.586 kJ/mol, 8.48 ± 0.795 kJ/mol and 11.6 ± 0.209 kJ/mol, respectively.
For “SAMKVTVKPTTLPDGTTVVVTTEPDKIVAYGTYNGDSFTSESLPDGTVVTTAKKPGGVLVTSPTDPNLESAG [r14_213_JUSTAS]”, the “folding stability dG unfold” value is 1.11 ± 0.31 kJ/mol in series [1], 1.09 ± 0.0837 kJ/mol in series [2] and 0.47 ± 0.586 kJ/mol in series [3].
With “SAMKVYEIPIEIPISKYKPSDIIAALKKALDKLNIPFPEEIIKELTIISIKTGGNISTAIKTLLENGLLSAG [r14_364_TrMRF]”, the “folding stability dG unfold” value stood at 6.51 ± 0.711 kJ/mol in series [1], 7.09 ± 0.502 kJ/mol in series [2] and 5.41 ± 0.402 kJ/mol in series [3].
Regarding “SAMKVYIAASSPEEIEGWIEEARKAGIDGPELIFVSPDDRVYKAEIIPNTGEVKIEPVKPIEELLKELPSAG [r14_913_TrMRF]”, the “folding stability dG unfold” value in series [1] stood at 4 ± 1.42 kJ/mol; in series [2], 4.55 ± 0.46 kJ/mol; in series [3], 3.3 ± 1.67 kJ/mol.
On to “SAMKVYKAKVTIVDEEGNLLDEIELEFETEEELKEKVLEELGVSEEEIVEIELSPEVSEEEFEKKLKLESAG [r14_852_JUSTAS]”, for which the “folding stability dG unfold” value in series [1] is 1.45 ± 0.586 kJ/mol; in series [2] it was -1.78 ± 1.05 kJ/mol; in series [3] it was 3.25 ± 0.628 kJ/mol.
Take “SAMLEEVEERAREIAERLREEYPDVEEFTVELELPLPDGRFLRVTVTIRRERDDEGDTFEVEVDVEEVDSAG [r14_788_TrMRF]”: the “folding stability dG unfold” value in series [1] turned out to be 18.6 ± 0.397 kJ/mol; in series [2], 14.5 ± 0.544 kJ/mol; in series [3] it was 20.6 ± 0.544 kJ/mol.
On to “SAMLKLEITLPDGTVVEVEIPLERPVPPAGEEEALAAAEAVREAVAAALGLEDAEVTMEVEEVSPEELLSAG [r14_378_JUSTAS]”, for which the “folding stability dG unfold” value worked out at 5.88 ± 0.837 kJ/mol in series [1], 6.9 ± 0.502 kJ/mol in series [2] and 4.31 ± 0.213 kJ/mol in series [3].
On to “SAMLPSIIIAKAKEAIEKSGKPVPVVIKIPVYKKENGPPVSLEKAKEIFEKLKEAFPDVPIIIELEEPESAG [r14_636_TrMRF]”, for which the “folding stability dG unfold” value in series [1] worked out at 3.21 ± 0.201 kJ/mol; in series [2] it was 3.66 ± 0.046 kJ/mol; in series [3] it was 2.25 ± 0.142 kJ/mol.
